Substitutions are numbered along the chain they refer to.
B1: sFes^4, superbinder Fes SH2 domain variant (designed binder)
chain: MKIEEHHHHHHSSGKLGLNDIFEAQKIEWHESSGEDLYFQSGTTMDDYKDDDDKGGSEVQKPLHEQLWYHGAIPRAEVAELLVHSGDFLVRESQGRKVYVLSVLWDGLPRHFIIQSLDNLYRLEGEGFPSIPLLIDHLLSTQQPLTKKSGVVLHRAVPSR
B2: sFes^1 (SuperFes), superbinder Fes SH2 domain variant (designed binder)
chain: B1 chain with S93G, G95S, R96Q, K97P, V98D
B3: sFes^3, superbinder Fes SH2 domain variant (designed binder)
chain: B1 chain with Q94P, G95R, R96I, K97Q, V98E
B4: sFes^2, superbinder Fes SH2 domain variant (designed binder)
chain: B1 chain with S93R, G95R, R96K, K97Q, V98E
B5: sFes^6, superbinder Fes SH2 domain variant (designed binder)
chain: B1 chain with L89I, G95T, R96Y, K97P, V98G
B6: sFes^5, superbinder Fes SH2 domain variant (designed binder)
chain: B1 chain with Q94I, G95S, R96K, K97Q, V98G, I113L

These binders were tested against pTyr-containing peptide (pEZ) derived from Ezrin, PPV{pTyr}EPVS (assay: phage ELISA, phage-displayed clone on immobilized peptide).

Binder	binding signal for pEZ over that for the unphosphorylated peptide EZ
B1	10 fold
B2	10 fold
B3	10 fold
B4	10 fold
B5	10 fold
B6	10 fold

Each binder was assayed against pTyr-containing peptide (pEZ) derived from Ezrin, PPV{pTyr}EPVS (assay: fluorescence polarization; fold change over wt Fes SH2).

Binder	Fold Change
B1	77 fold
B2	493 fold
B3	95.9 fold
B4	344 fold
B5	28 fold
B6	33.8 fold

Each binder was assayed against pTyr-containing peptide (pEZ) derived from Ezrin, PPV{pTyr}EPVS (assay: fluorescence polarization, purified SH2 domain with fluorescein-labelled ezrin phosphopeptide).

Binder	IC50
B1	17.4 nM
B2	2.7 nM
B3	14 nM
B4	3.9 nM
B5	48 nM
B6	39.7 nM

Reference: US20260055143A1, “HIGH AFFINITY VARIANTS OF SH2 DOMAINS” (Axoiya Inc., priority 2023, published 2026)
